Measured values taken from US20210244857A1, “PEPTIDE-COATED CALCIUM PHOSPHATE PARTICLES” (Cerapedics, Inc., priority 2016, published 2021).
Ends that are not written are not given here.

Columns and labels:
[1] = P-15 bound to ABM particles after pretreatment, coating and washing (ELISA), effect of osmolarity; type: physicochemical, Bovine; conditions: Hepes buffer pH 7.2
Procedure: (§1) ABM particles were incubated in a buffered solution that contained varying amounts of NaCl to modulate the final osmolarity. The ABM particles were incubated in the solutions for 18-24 hours, rinsed a second time in the same buffer, and dried. The pre-treated surface modified ABM particles were then incubated with P-15 dissolved in the same buffer as used during the pre-treatment step to coat the particles with P-15 peptide. Following the P-15 coating step, the ABM particles were washed repeatedly with the corresponding buffer solution. The amount of bound P-15 was determined using an ELISA test method. The different runs represent different preparations of the same ABM source.

[2] = as above; type: physicochemical; conditions: Hepes buffer pH 7.2, Porcine Cancellous Run #1
Procedure: as §1

[3] = P-15 bound on final washed ABM particles, effect of pretreatment and freezing/drying technique; type: physicochemical
Procedure: Step 1: PRETREATMENT—ABM is pretreated in a Hypertonic (˜460 mM NaCl) HEPES buffer, pH 7.2, at a 10:1 ratio (ml solution to g ABM) for 24 hours. This solution is decanted off after 24 hours. This wash is repeated with fresh solution for 1 hour or until there is no pH change upon exposure to fresh solution. The final wash solution is decanted and the ABM is vacuum dried. The pretreatment step is performed with agitation of some kind (roller, rotation, etc.).
Step 2: COATING—A P-15 coating buffer (concentration depends on final desired P-15 coated on ABM) is made using hypertonic HEPES, pH 7.2. Pretreated ABM is coated using a 2:1 ratio (mL solution to g ABM) for 24 hours. This step is performed statically, with no agitation.
Step 3: WASHING—After the 24 hour coating step, the solution is removed by a rapid vacuum filtration process. The coated ABM is washed 6-12 times in a 10:1 ratio of solution to ABM using hypertonic HEPES buffer, pH 7.2. Vacuum filtration is performed between each wash to remove the solution. After the final wash, the washed ABM is then vacuum dried overnight.
ABM particles are produced as described in step 1 of Example 1, where step 1 further includes freezing and then drying the ABM particles subjected to hypertonic buffer.
Paired samples of pretreated ABM particles were freeze-dried (F/D) by two different methods, and a third sample was simply air dried (without any freezing). One sample was placed on a controlled ambient temperature F/D shelf and a vacuum was immediately pulled to initiate rapid evaporative freezing (FD-EC). The second sample was placed on an ambient F/D shelf and slowly frozen by ramped freezing (˜1-2° C. per minute). Once the sample was frozen the vacuum was initiated; this process is considered standard freeze-drying. The F/D process was used for both (a) the pretreatment step 1 and the washing (post-coating) step 3. The third samples was not frozen; the water was removed from the sample by air-drying at both drying steps. The following table indicates the amount of bound P15 on the final washed product. Table 4 indicates the amount of bound P-15 on the final washed ABM particles.
Paired samples of pretreated ABM particles were F/D by two different methods. One sample was placed on a controlled ambient temperature F/D shelf and a vacuum was immediately pulled to initiate rapid evaporative freezing. The second sample was placed on an uncooled shelf and a vacuum was immediately pulled to initiate evaporative cooling (vacuum oven drying). It should be noted that the rate of cooling is slower for this process due to the shelf temperature and the strength of vacuum. The F/D process was used for both (a) the pretreatment step 1 and the washing (post-coating) step 3. Table 5 indicates the amount of bound P-15 on the final washed ABM particles.
Four paired samples of pretreated ABM particles were F/D by two methods, alternately performed at the two separate drying steps. Two samples were F/D by vacuum oven drying after the pretreatment step and then dried by either the vacuum oven drying process or by FD-EC (placed on a controlled ambient temperature F/D shelf and a vacuum was immediately pulled to initiate rapid evaporative freezing) method after the P-15 coating step. The other two samples were dried by FD-EC after the pretreatment step and then dried by either the vacuum oven drying process or by FD-EC method after the P-15 coating Table 6 table indicates the amount of bound P-15 on the final washed ABM particles.
Paired samples of pretreated ABM particles were F/D by two different methods. One sample was rapidly frozen using a blast-freezer. The frozen sample was placed on a cold F/D shelf and a vacuum was immediately pulled. The second samples was placed on an uncooled shelf and a vacuum was immediately pulled to initiate evaporative cooling. The F/D process was used for both (a) the pretreatment step 1 and the washing (post-coating) step 3. […]

## GTPGPQGIAGQRGVV [P-15, cell adhesion (collagen mimetic) peptide coated onto ABM particles]
[1]; Hypertonic Solution (2.7%saline), Bovine Cancellous Run #1
  P-15 Concentration Bound to ABM Particles: 149 ng-P-15/g-ABM
[1]; Hypertonic Solution (2.7%saline), Bovine Cancellous Run #2
  P-15 Concentration Bound to ABM Particles: 1024 ng-P-15/g-ABM
[1]; Hypertonic Solution (2.7%saline), Bovine Cortical Run #1
  P-15 Concentration Bound to ABM Particles: 153 ng ng-P-15/g-ABM
[1]; Hypertonic Solution (2.7%saline), Bovine Cortical Run #2
  P-15 Concentration Bound to ABM Particles: 105 ng-P-15/g-ABM
[1]; Hypotonic Solution (0% saline), Bovine Cancellous Run #1
  P-15 Concentration Bound to ABM Particles: 68 ng-P-15/g-ABM
[1]; Hypotonic Solution (0% saline), Bovine Cancellous Run #2
  P-15 Concentration Bound to ABM Particles: 651 ng-P-15/g-ABM
[1]; Hypotonic Solution (0% saline), Bovine Cortical Run #1
  P-15 Concentration Bound to ABM Particles: 105 ng ng-P-15/g-ABM
[1]; Hypotonic Solution (0% saline), Bovine Cortical Run #2
  P-15 Concentration Bound to ABM Particles: 64 ng-P-15/g-ABM
[1]; Isotonic Solution (0.9% saline), Bovine Cancellous Run #1
  P-15 Concentration Bound to ABM Particles: 129 ng-P-15/g-ABM
[1]; Isotonic Solution (0.9% saline), Bovine Cancellous Run #2
  P-15 Concentration Bound to ABM Particles: 611 ng-P-15/g-ABM
[1]; Isotonic Solution (0.9% saline), Bovine Cortical Run #1
  P-15 Concentration Bound to ABM Particles: 116 ng ng-P-15/g-ABM
[1]; Isotonic Solution (0.9% saline), Bovine Cortical Run #2
  P-15 Concentration Bound to ABM Particles: 66 ng-P-15/g-ABM
[2]; Hypertonic Solution (2.7%saline)
  P-15 Concentration Bound to ABM Particles: 376 ng ng-P-15/g-ABM
[2]; Hypotonic Solution (0% saline)
  P-15 Concentration Bound to ABM Particles: 231 ng ng-P-15/g-ABM
[2]; Isotonic Solution (0.9% saline)
  P-15 Concentration Bound to ABM Particles: 283 ng ng-P-15/g-ABM
[3]; Table 4, Air drying at both drying steps, no freezing
  P-15 ng/g ABM: 74 ng/g ABM
[3]; Table 4, Rapid freeze in freeze-dryer at pretreatment and post-coating steps
  P-15 ng/g ABM: 1521 ng/g ABM
[3]; Table 4, Slow freeze in freeze-dryer at pretreatment and post-coating steps
  P-15 ng/g ABM: 366 ng/g ABM
[3]; Table 5, Intermediate freeze in vacuum oven
  P-15 ng/g ABM: 308 ng/g ABM
[3]; Table 5, Rapid freeze in freeze-dryer
  P-15 ng/g ABM: 4201 ng/g ABM
[3]; Table 6, Pretreatment Step FD-EC, P-15 Coating Step FD-EC
  P-15 ng/g ABM: 351 ng/g ABM
[3]; Table 6, Pretreatment Step FD-EC, P-15 Coating Step Vacuum oven
  P-15 ng/g ABM: 261 ng/g ABM
[3]; Table 6, Pretreatment Step Vacuum oven, P-15 Coating Step FD-EC
  P-15 ng/g ABM: 77 ng/g ABM
[3]; Table 6, Pretreatment Step Vacuum oven, P-15 Coating Step Vacuum oven
  P-15 ng/g ABM: 72 ng/g ABM
[3]; Table 7, Blast-freeze followed by standard freeze-dryer
  P-15 ng/g ABM: 260 ng/g ABM
[3]; Table 7, Intermediate freeze in vacuum oven
  P-15 ng/g ABM: 80 ng/g ABM
